Assay results taken from patent US20200270125.

Molecular target: ST-pro-factor D-His, P00746
Sequence (P00746 whole entry, looked up): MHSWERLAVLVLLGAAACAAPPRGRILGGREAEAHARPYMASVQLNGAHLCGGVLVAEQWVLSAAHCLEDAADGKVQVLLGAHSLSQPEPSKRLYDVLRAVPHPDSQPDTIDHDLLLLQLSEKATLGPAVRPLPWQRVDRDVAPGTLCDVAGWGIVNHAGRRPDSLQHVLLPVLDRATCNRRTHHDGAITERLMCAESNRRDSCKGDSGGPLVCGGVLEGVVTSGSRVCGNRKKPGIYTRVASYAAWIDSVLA

B1: recombinant full-length human MASP-3 (protein)
chain: HTVELNNMFGQIQSPGYPDSYPSDSEVTWNITVPDGFRIKLYFMHFNLESSYLCEYDYVKVETEDQVLATFCGRETTDTEQTPGQEVVLSPGSFMSITFRSDFSNEERFTGFDAHYMAVDVDECKEREDEELSCDHYCHNYIGGYYCSCRFGYILHTDNRTCRVECSDNLFTQRTGVITSPDFPNPYPKSSECLYTIELEEGFMVNLQFEDIFDIEDHPEVPCPYDYIKIKVGPKVLGPFCGEKAPEPISTQSHSVLILFHSDNSGENRGWRLSYRAAGNECPELQPPVHGKIEPSQAKYFFKDQVLVSCDTGYKVLKDNVEMDTFQIECLKDGTWSNKIPTCKIVDCRAPGELEHGLITFSTRNNLTTYKSEIKYSCQEPYYKMLNNNTGIYTCSAQGVWMNKVLGRSLPTCLPECGQPSRSLPSLVKRIIGGRNAEPGLFPWQALIVVEDTSRVPNDKWFGSGALLSASWILTAAHVLRSQRRDTTVIPVSKEHVTVYLGLHDVRDKSGAVNSSAARVVLHPDFNIQNYNHDIALVQLQEPVPLGPHVMPVCLPRLEPEGPAPHMLGLVAGWGISNPNVTVDEIISSGTRTLSDVLQYVKLPVVPHAECKTSYESRSGNYSVTENMFCAGYYEGGKDTCLGDSGGAFVIFDDLSQRWVVQGLVSWGGPEECGSKQVYGVYTKVSNYVDWVWEQMGLPQSVVEPQVER
With B1 the “cleavage of pro-factor D (Western blot)” value was “only full length MASP-3 (lane 2) and the MASP-1 CCP1-CCP2-SP) fragment (lane 5) cleaved ST-pro-factor D-His6”.

B2: recombinant human MASP-1 (CCP1-CCP2-SP) fragment, active (protein)
chain: GNECPELQPPVHGKIEPSQAKYFFKDQVLVSCDTGYKVLKDNVEMDTFQIECLKDGTWSNKIPTCKIVDCRAPGELEHGLITFSTRNNLTTYKSEIKYSCQEPYYKMLNNNTGIYTCSAQGVWMNKVLGRSLPTCLPVCGLPKFSRKLMARIFNGRPAQKGTTPWIAMLSHLNGQPFCGGSLLGSSWIVTAAHCLHQSLDPKDPTLRDSDLLSPSDFKIILGKHWRLRSDENEQHLGVKHTTLHPKYDPNTFENDVALVELLESPVLNAFVMPICLPEGPQQEGAMVIVSGWGKQFLQRFPETLMEIEIPIVDHSTCQKAYAPLKKKVTRDMICAGEKEGGKDACSGDSGGPMVTLNRERGQWYLVGTVSWGDDCGKKDRYGVYSYIHHNKDWIQRVTGVRN
For B2, the “cleavage of pro-factor D (Western blot)” value was “only full length MASP-3 (lane 2) and the MASP-1 CCP1-CCP2-SP) fragment (lane 5) cleaved ST-pro-factor D-His6”.
